PMC8513821 (Nature, 2021)

Target: the molecule itself
Assay: single-molecule photobleaching step counting

B1: HCN1SM (human HCN1 with amino acids 636-865 deleted, N-terminal Twin-strep tag and eGFP) (complex, UniProt O60741 1-890, looked up)
chain: MEGGGKPNSSSNSRDDGNSVFPAKASATGAGPAAAEKRLGTPPGGGGAGAKEHGNSVCFKVDGGGGGGGGGGGGEEPAGGFEDAEGPRRQYGFMQRQFTSMLQPGVNKFSLRMFGSQKAVEKEQERVKTAGFWIIHPYSDFRFYWDLIMLIMMVGNLVIIPVGITFFTEQTTTPWIIFNVASDTVFLLDLIMNFRTGTVNEDSSEIILDPKVIKMNYLKSWFVVDFISSIPVDYIFLIVEKGMDSEVYKTARALRIVRFTKILSLLRLLRLSRLIRYIHQWEEIFHMTYDLASAVVRIFNLIGMMLLLCHWDGCLQFLVPLLQDFPPDCWVSLNEMVNDSWGKQYSYALFKAMSHMLCIGYGAQAPVSMSDLWITMLSMIVGATCYAMFVGHATALIQSLDSSRRQYQEKYKQVEQYMSFHKLPADMRQKIHDYYEHRYQGKIFDEENILNELNDPLREEIVNFNCRKLVATMPLFANADPNFVTAMLSKLRFEVFQPGDYIIREGAVGKKMYFIQHGVAGVITKSSKEMKLTDGSYFGEICLLTKGRRTASVRADTYCRLYSLSVDNFNEVLEEYPMMRRAFETVAIDRLDRIGKKNSILLQKFQKDLNTGVFNNQENEILKQIVKHDREMVQAALPRESSSVLNTDPDAEKPRFASNL
stoichiometry N: 4
